According to patent US20250354131A1, “NOVEL GLYCOSYNTHASE” (CarboCode S.A., priority 2021, published 2025):
Where a chain is given by its changes, count along the chain named. Names and notes keep the numbering of the source.

B1: SEQ ID NO: 15: EGC synthase, E339S, Δ1-26; Rhodococcus hoagii 103S (SEQ ID NO: 14) (protein)
chain: MAPPATPITTLQADGTHLVDGYGRTVLLHGVNNVDKDAPYLPAGETLTPQDIDILVRHGFNTVRLGTSFDALMPQRGQIDEAYLDRLTGVVDALTARGMHVLLDNHQDGLSKAWGGNGFPEWAIESRPREWEPNPGFPLYYLMPSLNAGWDEVWGNTHGALDHLGTALGALAERVEGKPGVMGIELLNEPWPGSRFLSCFPNGCPDFDRTYQAAMQKLTDAVRAQNPTIPVYWEPNVTWNQMMPSNLFAPPVTPALTTADVVFAPHDYCIPSQLAIYLGLPQALRGLCVPQQDLTWSNIDAITERANVPTVITSFGDGDPTVLKNTLARADERFIGWQYWHFGAGNATDPFLGEVGRQLVRTYPQATAGEPGRMIFDADNGDFAYRFTPRAATRPTEIFVSDLHYPDGYAVQVDGGQVTSAPGARIVTVVADGSGPVTVKINRPGSAGAEVPDGPIETSSSGSSGSS
B2: SEQ ID NO: 8: EGC synthase, E350S, D312Y, Δ1-24, N-term. His-Tag, Δ146-152; Rhodococcus sp. AQ5-07 (protein)
chain: MGHHHHHHMQGSLPTSGSAGGTDVPPSYLTDDAGRSLILRGFNTASSAKSEPEPGQYDQEYLDRVEDRVSWYAERGYKVMLDMHQDVYSGAITPEGNIGNGAPAWATYMDGLPVSPQDRWELYYIQPGVMRAFDNFWNTTGQHPELVEHYANAWQAVAERFAGNDTVVAYDLMNEPWGGSLQGPAFEGGPLAALYQRTTNAIREVDQDSWVCVAPQAVGVNQGVPSGLTKINDPRAGEQRIAYCPHLYPLPLDLGYGYSGLSRTLTDATIDTWRDSVEHIAGNVLGGVPVILASFGLDTTLPGATDYIDRVYATARELGAGVSYWSSDPGPWGPYLPDGTQTLLVDTLNRPYPRAVAGTPTEWSSSVDRLQLTFTPNPAVTAPTEIYLPESGFPGGVDVAGADIVNWNPQSRLLTVEAPDGMPKFTEADLEREHADMGTNFVRFLISWRSVTADDAGPVTVTVTPAS
modifications: N-terminal His-tag
B3: SEQ ID NO: 6: EGC synthase, E350S, Δ1-24, N-term. His-Tag, Δ146-152; Rhodococcus sp. AQ5-07 (protein)
chain: B2 chain with Y256D
modifications: N-terminal His-tag
B4: SEQ ID NO: 18: EGC synthase, E351S, D314Y, Δ1-30, N-term. His-Tag, Δ148-154; Rhodococcus sp. strain M-777 (protein)
chain: MGSSHHHHHHSSGLVPRGSHMSGSGSGSGTALTPSYLKDDDGRSLILRGFNTASSAKSAPDGMPQFTEADLAREYADMGTNFVRFLISWRSVEPAPGVYDQQYLDRVEDRVGWYAERGYKVMLDMHQDVYSGAITPEGAIGNGAPAWATYMDGLPVEPQPRWELYYIQPGVMRAFDNFWNTTGKHPELVEHYAKAWRAVADRFADNDAVVAYDLMNEPFGGSLQGPAFEAGPLAAMYQRTTDAIRQVDQDTWVCVAPQAIGVNQGLPSGLTKIDDPRAGQQRIAYCPHLYPLPLDIGYGHEGLARTLTDVTIDAWRANTAHTARVLGDVPIILGSFGLDTTLPGARDYIERVYGTAREMGAGVSYWSSDPGPWGPYLPDGTQTLLVDTLNKPYPRAVAGTPTEWSSTSDRLQLTIEPDAAITAPTEIYLPEAGFPGDVHVEGADVVGWDRQSRLLTVRTPADSGNVTVTVTPAA
modifications: N-terminal His-tag
B5: SEQ ID NO: 17: Reference EGC synthase, E351S, D314Y, A153T, Δ1-30, N-term. His-Tag; Rhodococcus sp. strain M-777 (protein)
chain: MGSSHHHHHHSSGLVPRGSHMSGSGSGSGTALTPSYLKDDDGRSLILRGFNTASSAKSAPDGMPQFTEADLAREYADMGTNFVRFLISWRSVEPAPGVYDQQYLDRVEDRVGWYAERGYKVMLDMHQDVYSGAITPEGNSGNGTGAIGNGAPAWATYMDGLPVEPQPRWELYYIQPGVMRAFDNFWNTTGKHPELVEHYAKAWRAVADRFADNDAVVAYDLMNEPFGGSLQGPAFEAGPLAAMYQRTTDAIRQVDQDTWVCVAPQAIGVNQGLPSGLTKIDDPRAGQQRIAYCPHLYPLPLDIGYGHEGLARTLTDVTIDAWRANTAHTARVLGDVPIILGSFGLDTTLPGARDYIERVYGTAREMGAGVSYWSSDPGPWGPYLPDGTQTLLVDTLNKPYPRAVAGTPTEWSSTSDRLQLTIEPDAAITAPTEIYLPEAGFPGDVHVEGADVVGWDRQSRLLTVRTPADSGNVTVTVTPAA
modifications: N-terminal His-tag
B6: SEQ ID NO: 4: EGC synthase, E350S, Δ1-24, N-term. His-Tag; Rhodococcus sp. AQ5-07 (protein)
chain: MGHHHHHHMQGSLPTSGSAGGTDVPPSYLTDDAGRSLILRGFNTASSAKSEPEPGQYDQEYLDRVEDRVSWYAERGYKVMLDMHQDVYSGAITPEGNSGNGAGNIGNGAPAWATYMDGLPVSPQDRWELYYIQPGVMRAFDNFWNTTGQHPELVEHYANAWQAVAERFAGNDTVVAYDLMNEPWGGSLQGPAFEGGPLAALYQRTTNAIREVDQDSWVCVAPQAVGVNQGVPSGLTKINDPRAGEQRIAYCPHLYPLPLDLGDGYSGLSRTLTDATIDTWRDSVEHIAGNVLGGVPVILASFGLDTTLPGATDYIDRVYATARELGAGVSYWSSDPGPWGPYLPDGTQTLLVDTLNRPYPRAVAGTPTEWSSSVDRLQLTFTPNPAVTAPTEIYLPESGFPGGVDVAGADIVNWNPQSRLLTVEAPDGMPKFTEADLEREHADMGTNFVRFLISWRSVTADDAGPVTVTVTPAS
modifications: N-terminal His-tag
B7: SEQ ID NO: 5: EGC synthase, E350S, Δ146-152; Rhodococcus sp. AQ5-07 (protein)
chain: MRRIPLSALIVAGSLILGGGIAAAQGSLPTSGSAGGTDVPPSYLTDDAGRSLILRGFNTASSAKSAPDGMPKFTEADLEREHADMGTNFVRFLISWRSVEPEPGQYDQEYLDRVEDRVSWYAERGYKVMLDMHQDVYSGAITPEGNIGNGAPAWATYMDGLPVSPQDRWELYYIQPGVMRAFDNFWNTTGQHPELVEHYANAWQAVAERFAGNDTVVAYDLMNEPWGGSLQGPAFEGGPLAALYQRTTNAIREVDQDSWVCVAPQAVGVNQGVPSGLTKINDPRAGEQRIAYCPHLYPLPLDLGDGYSGLSRTLTDATIDTWRDSVEHIAGNVLGGVPVILASFGLDTTLPGATDYIDRVYATARELGAGVSYWSSDPGPWGPYLPDGTQTLLVDTLNRPYPRAVAGTPTEWSSSVDRLQLTFTPNPAVTAPTEIYLPESGFPGGVDVAGADIVNWNPQSRLLTVETADDAGPVTVTVTPAS

Test: Enzymatic conversion of lactosyl sphingoid bases with β-galactosidase
Assay type: biochemical
Details: within about 48 to about 72 hours at about 37° C.; 1 M NaOAc pH 5.0, 5 g/L β-cyclodextrin, 5 g/L enzyme
Protocol: Enzymatic reactions were performed in 1 M NaOAc buffer (pH set to 5.0). A typical reaction mixture contained 50-100 g/L of lactosyl sphingoid base (synthesised according to the general procedure of Example 3 or Example 5), 5 g/L of β-cyclodextrin, 5 g/L of β-galactosidase (e.g. from A. oryzae). Typically, the reaction proceeds up to 99% conversion within about 48 to about 72 hours at about 37° C. and continuous stirring. The enzymatic reaction was followed by LCMS analysis (for methods and conditions see Example 9).
Samples (25 μL) were taken from reaction mixtures, mixed with DMSO (950 μL) and subjected to centrifugation (16.000 rpm, 5 min) and analyzed with a Shimadzu ECO 2020 LC system coupled with a Shimadzu LCMS-2020 system. The HPLC analysis was performed using a Merck Ascentis Express RP-Amide column (15 cm×4.6 mm, 2.7 μm). For analysis of compounds the eluent consisted of solvent D (2 mM ammonium formate, […], 75% v/v MeOH, 25% v/v ACN)-solvent C (2 mM formic acid in filtered ddH2O), and the following gradient was applied as stated in the table below. The flow rate was 1 mL/min. The MS analysis was performed under the following conditions: ESI positive ionization, vaporizer temperature 300° C.; LC-MS mode, 1:1 split of flow; ESI negative ionization, vaporizer temperature 300° C.; LC-MS mode, 1:1 split of flow.
In the case of β-galactosidase, the conversion is reported as “up to 99%”.

Test: Production of lactosyl-6-hydroxysphingosine: conversion rates of different enzymes
Assay type: biochemical
Details: Time 1 h; 30 mg/mL 6-OH-Sph, 300 mg/mL Lac-F, 1 M NaOAc, pH 6.0, 37° C.
Protocol: Reaction contained: 30 mg/mL 6-OH-Sph, 300 mg/mL Lac-F, enzyme, 1 M NaOAc.
Reactions were executed at pH 6.0, 37° C. and 1500 rpm stirring. Product analysis was done by ELSD (% rel. conversion) and LC-MS using standard conditions for Lac-Sph analysis.
In the case of B1, the “Conversion [% ELSD area product]” value is reported as 3.7 % ELSD area product.
For B2, the “Conversion [% ELSD area product]” value was 100 % ELSD area product.
For B3, the “Conversion [% ELSD area product]” value was 100 % ELSD area product.
With B4 the “Conversion [% ELSD area product]” value was 99.3 % ELSD area product.
For B5, the “Conversion [% ELSD area product]” value was 99.4 % ELSD area product.

Same assay, conditions: Time 2 h; 30 mg/mL 6-OH-Sph, 300 mg/mL Lac-F, 1 M NaOAc, pH 6.0, 37° C.
With B1 the “Conversion [% ELSD area product]” value was 9.1 % ELSD area product.
With B2 the “Conversion [% ELSD area product]” value was 100 % ELSD area product.
In the case of B3, the “Conversion [% ELSD area product]” value is reported as 100 % ELSD area product.
For B4, the “Conversion [% ELSD area product]” value was 99.8 % ELSD area product.
For B5, the “Conversion [% ELSD area product]” value was 100 % ELSD area product.

Test: Km determination of EGC synthases with lactosyl fluoride and sphingosine (HPLC-ELSD)
Assay type: biochemical
Details: Donor Lac-F, acceptor sphingosine; cell-free extract
Protocol: The assay mixture contained 1 M sodium acetate buffer at pH 5.5, 20 mg/mL sphingosine-base and EGCS enzyme. As a reference, EGC synthase of SEQ ID NO:17 was used. Six different concentrations of lactosyl fluoride (Lac-F) ranging from 5 mg/mL to 164 mg/mL were assayed. From every assay mixture, four time points were collected by quenching the reaction with 19× volume of DMSO. The samples were analyzed by HPLC-ELSD analysis and conversion rates were determined by linear regression.
In the case of B2, the “U/mg CFE” value is reported as 0.60 U/mg CFE.
With B6 the “U/mg CFE” value was 0.20 U/mg CFE.
In the case of B7, the “U/mg CFE” value is reported as 0.61 U/mg CFE.
With B5 the “U/mg CFE” value was 0.074 U/mg CFE.

Same assay, conditions: relative to reference SEQ ID NO: 17; donor Lac-F, acceptor sphingosine
With B2 the “Fold improvement to reference” value was 8.1.
With B6 the “Fold improvement to reference” value was 2.7.
For B7, the “Fold improvement to reference” value was 8.2.
In the case of B5, the “Fold improvement to reference” value is reported as 1.0.
